Results as given in PMC7505656.

Experiments:
[1] = target: E-cadherin extracellular domain L175D cis-binding mutant, hexahistidine-tagged (human) (UniProt P12830); test: single-molecule tracking cluster size distributions + kinetic Monte Carlo simulation; effective rate constants worked out from kMC on/off rates that were optimised so that simulated cluster size distributions match the experimental ones (1,250 E-cad/µm^2 in the simulation)
[2] = target: E-cadherin extracellular domain L175D cis-binding mutant, hexahistidine-tagged (human) (UniProt P12830); test: single-molecule tracking (TIRFM), cluster size from trajectory friction factors; AF555 labelled E-cad on DOPC supported lipid bilayers with 5% DGS-NTA(Ni); high, intermediate and low surface coverage (~39,000, ~1,000, ~0.6 E-cad/µm^2); raw friction factor data adapted from Thompson et al., 2019 and analysed here
[3] = target: wild-type E-cadherin extracellular domain, hexahistidine-tagged (human) (UniProt P12830); test: FRET or BRET; single-molecule intermolecular FRET by TIRF microscopy; high-coverage wild-type (~1,400 E-cad/µm^2; 5 × 10^-7 M total in solution); AF555 donor, AF647 acceptor and unlabelled E-cad tethered by His6 to a DOPC/DGS-NTA(Ni) 19:1 supported lipid bilayer; 25 mM HEPES, 100 mM NaCl, 10 mM KCl, 2 mM CaCl2, 0.05 mM NiSO4, pH 8; average dissociation rate constant from a three-state Markov model
[4] = target: wild-type E-cadherin extracellular domain, hexahistidine-tagged (human) (UniProt P12830); test: single-molecule tracking cluster size distributions + kinetic Monte Carlo simulation; effective rate constants worked out from kMC on/off rates that were optimised so that simulated cluster size distributions match the experimental ones (1,250 E-cad/µm^2 in the simulation)
[5] = target: wild-type E-cadherin extracellular domain, hexahistidine-tagged (human) (UniProt P12830); test: single-molecule tracking (TIRFM), cluster size from trajectory friction factors; AF555 labelled E-cad on DOPC supported lipid bilayers with 5% DGS-NTA(Ni); high, intermediate and low surface coverage (~39,000, ~1,000, ~0.6 E-cad/µm^2); raw friction factor data adapted from Thompson et al., 2019 and analysed here
[6] = target: E-cadherin extracellular domain L175D cis-binding mutant, hexahistidine-tagged (human) (UniProt P12830); test: FRET or BRET; single-molecule intermolecular FRET by TIRF microscopy; high-coverage mutant (~1,300 E-cad/µm^2; 5 × 10^-7 M total in solution); AF555 labelled wild-type donor with AF647 labelled mutant acceptor and unlabelled mutant, tethered by His6 to a DOPC/DGS-NTA(Ni) supported lipid bilayer; same buffer, pH 8; three-state Markov model
[7] = target: wild-type E-cadherin extracellular domain, hexahistidine-tagged (human) (UniProt P12830); test: FRET or BRET; single-molecule intermolecular FRET by TIRF microscopy; intermediate-coverage wild-type (~1,000 E-cad/µm^2; 3 × 10^-7 M total in solution); AF555 donor, AF647 acceptor and unlabelled E-cad tethered by His6 to a DOPC/DGS-NTA(Ni) supported lipid bilayer; same buffer, pH 8; three-state Markov model

effective koff, nonspecific cis-interaction [1] [s⁻¹]	effective kon, nonspecific cis-interaction [1] [M⁻¹ s⁻¹]	characteristic cluster size [2] [E-cad]	cluster size (E-cad per cluster) [2] [E-cad]	koff [3] [s⁻¹]	binding affinity, specific cis-interaction [4] [µM]	effective koff, specific cis-interaction [4] [s⁻¹]	effective kon, specific cis-interaction [4] [M⁻¹ s⁻¹]	characteristic cluster size [5] [E-cad]	cluster size (E-cad per cluster) [5] [E-cad]	koff [6] [s⁻¹]	koff [7] [s⁻¹]	Substance
1000	1.1e+06	29	40									E-cadherin extracellular domain L175D cis-binding mutant, hexahistidine-tagged (from UniProt P12830 155-709) (domain or fragment)
				1.04	10	100	2.7e+06	33	40 to 160	1.4	3.17	wild-type E-cadherin extracellular domain, hexahistidine-tagged (from UniProt P12830 155-709) (domain or fragment)
